Legend:
[1] = molecular target: the molecule itself; assay: SEC + other: sucrose gradient centrifugation; native weight of purified SMC from sedimentation coefficient 6.6 and Stokes radius 8.5; monomers to dimer
[2] = molecular target: the molecule itself; assay: SEC; analytical gel filtration, Superdex 200 10/300 GL; 50 mM HEPES, 300 mM NaCl, pH 8.0; proteins incubated 30 min; ScpA and ScpB alone or mixed (1:2.5, 1:0.83, 1:10), fractions on SDS-PAGE

B1: SMC protein (Bacillus subtilis), His-tagged, purified (natural protein, UniProt P51834 1-1186, looked up)
chain: MFLKRLDVIGFKSFAERISVDFVKGVTAVVGPNGSGKSNITDAIRWVLGEQSARSLRGGKMEDIIFAGSDSRKRLNLAEVTLTLDNDDHFLPIDFHEVSVTRRVYRSGESEFLINNQPCRLKDIIDLFMDSGLGKEAFSIISQGKVEEILSSKAEDRRSIFEEAAGVLKYKTRKKKAENKLFETQDNLNRVEDILHELEGQVEPLKIQASIAKDYLEKKKELEHVEIALTAYDIEELHGKWSTLKEKVQMAKEEELAESSAISAKEAKIEDTRDKIQALDESVDELQQVLLVTSEELEKLEGRKEVLKERKKNAVQNQEQLEEAIVQFQQKETVLKEELSKQEAVFETLQAEVKQLRAQVKEKQQALSLHNENVEEKIEQLKSDYFELLNSQASIRNELQLLDDQMSQSAVTLQRLADNNEKHLQERHDISARKAACETEFARIEQEIHSQVGAYRDMQTKYEQKKRQYEKNESALYQAYQYVQQARSKKDMLETMQGDFSGFYQGVKEVLKAKERLGGIRGAVLELISTEQKYETAIEIALGASAQHVVTDDEQSARKAIQYLKQNSFGRATFLPLSVIRDRQLQSRDAETAARHSSFLGVASELVTFDPAYRSVIQNLLGTVLITEDLKGANELAKLLGHRYRIVTLEGDVVNPGGSMTGGAVKKKNNSLLGRSRELEDVTKRLAEMEEKTALLEQEVKTLKHSIQDMEKKLADLRETGEGLRLKQQDVKGQLYELQVAEKNINTHLELYDQEKSALSESDEERKVRKRKLEEELSAVSEKMKQLEEDIDRLTKQKQTQSSTKESLSNELTELKIAAAKKEQACKGEEDNLARLKKELTETELALKEAKEDLSFLTSEMSSSTSGEEKLEEAAKHKLNDKTKTIELIALRRDQRIKLQHGLDTYERELKEMKRLYKQKTTLLKDEEVKLGRMEVELDNLLQYLREEYSLSFEGAKEKYQLETDPEEARKRVKLIKLAIEELGTVNLGSIDEFERVNERYKFLSEQKEDLTEAKNTLFQVIEEMDEEMTKRFNDTFVQIRSHFDQVFRSLFGGGRAELRLTDPNDLLHSGVEIIAQPPGKKLQNLNLLSGGERALTAIALLFSILKVRPVPFCVLDEVEAALDEANVFRFAQYLKKYSSDTQFIVITHRKGTMEEADVLYGVTMQESGVSKVISVKLEETKEFVQ
notes: SMC, Bacillus subtilis; monomeric size 135 kDa as printed; also called wild-type SMC; wild type SMC
stoichiometry N [1]: 2

B2: ScpB (Bacillus subtilis), His-tagged, purified (natural protein, UniProt P35155 1-197, looked up)
chain: MGLDIVNWKAIVEALLYAAGDEGLTKKQLLTVLEIEEPELNTIMADVADEYRGDTRGIELIEYADTYMLSTKKDFAPYLKKLIEVPSKGLSQASLEVLAIVSYKQPITRAEIEEIRGVKSERILHSLVAKALLCEVGRADGPGRAILYGTTPTFLEQFGLKTLDELPPLPENAEEDVLQEEADLFFENFNQTFEDIK
notes: ScpB, Bacillus subtilis; elutes at 65 kDa in gel filtration (dimer)
stoichiometry N [2]: 2
